In IntAct's records for PubMed 31515488:

B1: Mothers against decapentaplegic homolog 4 (Homo sapiens), Q13485 (parent)
chain: MDNMSITNTPTSNDACLSIVHSLMCHRQGGESETFAKRAIESLVKKLKEKKDELDSLITAITTNGAHPSKCVTIQRTLDGRLQVAGRKGFPHVIYARLWRWPDLHKNELKHVKYCQYAFDLKCDSVCVNPYHYERVVSPGIDLSGLTLQSNAPSSMMVKDEYVHDFEGQPSLSTEGHSIQTIQHPPSNRASTETYSTPALLAPSESNATSTANFPNIPVASTSQPASILGGSHSEGLLQIASGPQPGQQQNGFTGQPATYHHNSTTTWTGSRTAPYTPNLPHHQNGHLQHHPPMPPHPGHYWPVHNELAFQPPISNHPAPEYWCSIAYFEMDVQVGETFKVPSSCPIVTVDGYVDPSGGDRFCLGQLSNVHRTEAIERARLHIGKGVQLECKGEGDVWVRCLSDHAVFVQSYYLDREAGRAPGDAVHKIYPSAYIKVFDLRQCHRQMQQQAATAQAAAAAQAAAVAGNIPGPGSVGGIAPAISLSAAAGIGVDDLRRLCILRMSFVKGWGPDYPRQSIKETPCWIEIHLHRALQLLDEVLHTMPIADPQPLD

Variants of: B1
Conditions: with ews_human EWSR1, Q01844
ews_human EWSR1, Q01844, sequence (Q01844 whole entry): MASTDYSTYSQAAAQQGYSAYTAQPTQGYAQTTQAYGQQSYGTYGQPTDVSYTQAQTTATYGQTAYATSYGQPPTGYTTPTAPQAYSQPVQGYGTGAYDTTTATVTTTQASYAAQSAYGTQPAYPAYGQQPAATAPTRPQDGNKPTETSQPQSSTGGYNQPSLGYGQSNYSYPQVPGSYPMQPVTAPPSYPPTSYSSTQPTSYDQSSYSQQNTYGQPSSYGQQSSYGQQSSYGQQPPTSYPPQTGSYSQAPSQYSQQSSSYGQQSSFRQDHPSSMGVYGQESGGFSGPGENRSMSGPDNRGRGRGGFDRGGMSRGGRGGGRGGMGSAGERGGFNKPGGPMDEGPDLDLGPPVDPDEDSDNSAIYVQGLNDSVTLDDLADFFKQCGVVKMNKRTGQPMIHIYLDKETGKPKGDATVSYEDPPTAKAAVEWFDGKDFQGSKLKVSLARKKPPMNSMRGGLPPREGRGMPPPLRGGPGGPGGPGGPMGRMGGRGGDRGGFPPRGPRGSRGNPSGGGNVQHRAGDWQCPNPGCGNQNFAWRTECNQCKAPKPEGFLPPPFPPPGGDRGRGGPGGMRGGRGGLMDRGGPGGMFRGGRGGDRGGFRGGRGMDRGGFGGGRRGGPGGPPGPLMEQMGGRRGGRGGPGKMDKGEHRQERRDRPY

Variant	effect of a mutation on the interaction
V539G	disrupting interaction strength
R76I	with no effect
R189C	with no effect
L533F	with no effect
R531W	with no effect
D355N	with no effect

Variants of: B1
Conditions: with smad3_human SMAD3, P84022
smad3_human SMAD3, P84022, sequence (P84022 whole entry, looked up): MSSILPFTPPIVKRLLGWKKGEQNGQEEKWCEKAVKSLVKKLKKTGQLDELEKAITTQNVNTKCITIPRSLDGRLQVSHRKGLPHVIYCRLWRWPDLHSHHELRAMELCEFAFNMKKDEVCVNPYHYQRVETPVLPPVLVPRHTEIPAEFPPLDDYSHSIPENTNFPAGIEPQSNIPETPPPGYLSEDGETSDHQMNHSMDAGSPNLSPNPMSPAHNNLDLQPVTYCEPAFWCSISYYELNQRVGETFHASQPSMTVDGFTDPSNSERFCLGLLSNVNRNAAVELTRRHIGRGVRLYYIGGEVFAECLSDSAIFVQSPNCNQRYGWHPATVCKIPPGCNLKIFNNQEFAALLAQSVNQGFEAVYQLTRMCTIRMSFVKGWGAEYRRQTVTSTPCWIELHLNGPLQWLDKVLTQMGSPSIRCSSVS

Variant	effect of a mutation on the interaction
V539G	disrupting interaction strength
R76I	with no effect
C324R	disrupting interaction strength
R189C	with no effect
L533R	disrupting interaction strength
L533F	disrupting interaction strength
Y353S	disrupting interaction strength
R531W	disrupting interaction strength
D355N	disrupting interaction strength
V407L	with no effect
V350D	disrupting interaction strength
M294V	with no effect

Variants of: B1
Conditions: with smad9_human SMAD9, O15198
smad9_human SMAD9, O15198, sequence (O15198 whole entry): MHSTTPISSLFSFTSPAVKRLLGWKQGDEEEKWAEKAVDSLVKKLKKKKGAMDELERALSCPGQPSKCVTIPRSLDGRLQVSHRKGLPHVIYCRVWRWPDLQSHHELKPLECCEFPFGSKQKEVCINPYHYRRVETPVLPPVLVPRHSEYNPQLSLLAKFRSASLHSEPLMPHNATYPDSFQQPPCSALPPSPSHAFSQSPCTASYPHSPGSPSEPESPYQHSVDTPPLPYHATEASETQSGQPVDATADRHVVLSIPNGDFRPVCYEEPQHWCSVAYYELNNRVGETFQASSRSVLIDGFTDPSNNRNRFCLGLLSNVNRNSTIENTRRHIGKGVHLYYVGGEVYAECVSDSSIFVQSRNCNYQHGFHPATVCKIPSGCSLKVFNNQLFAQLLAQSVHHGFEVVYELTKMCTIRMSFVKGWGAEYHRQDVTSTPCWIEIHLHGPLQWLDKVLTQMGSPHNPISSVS

Variant	effect of a mutation on the interaction
C324R	disrupting interaction strength
L533R	disrupting interaction strength
Y353S	disrupting interaction strength
V350D	disrupting interaction strength
